In US20210284724A1 (I MAB BIOPHARMA US, published 2021):

T1: human CXCL13 (human, UniProt O43927 23-109)
T1 construct: also called huCXCL13; rhCXCL13
T1 sequence (looked up): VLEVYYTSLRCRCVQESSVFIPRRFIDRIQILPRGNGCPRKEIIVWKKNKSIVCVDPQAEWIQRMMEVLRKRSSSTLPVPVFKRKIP


Experiments:
[1] = target: T1, human CXCL13; assay: SPR Biacore 8K, Fab over immobilised CXCL13
Experimental: HuCXCL13 binding affinity by Surface Plasmon Resonance. 411A11E9, 415A3D1, 64C10G1, 21H12D9, 329F2E1, 71F4A3 were selected to produce Fab and tested binding affinity. The binding of the antibodies to huCXCL13 was examined by Biacore 8K. 10 mM HEPES, 150 mM NaCl, 3 mM EDTA, 0.05% Tween-20, pH 7.4 served as running buffer and 10 mM glycine-HCl, pH2.0 served as regeneration buffer. CXCL13 protein was immobilized on Sensor Chip CM5 using amine coupling method (immobilization level ˜30RU). The serial concentrations of Fab (0-16 nM) were injected over immobilized CXCL13 at the flow rate of 30 μl/min. The dissociation phases were 600s.

[2] = target: T1, human CXCL13; assay: cell-based blocking assay, CXCL13 to CXCR5 cells
Method in brief: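 Serially diluted humanized Fabs were pre-incubated for 30 min at room temperature with an equal volume of 0.3 μg/ml human CXCL13. 100 μl was added for 30 min to CHO-K1-CXCR5 cells (5×10⁴/well, plated overnight at 37° C, fixed with 2% PFA, blocked with 1% BSA in PBST). After three PBST washes, bound CXCL13 was captured with 3 μg/ml of a human anti-CXCL13 antibody, detected with anti-human Fc-HRP and read at 450 nm. IC50 came from the titration.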

[3] = target: T1, human CXCL13; assay: SPR Biacore 8K, Fab over immobilised CXCL13; remark: listed apart in the source
Experimental: Among all humanized Fab samples, 71F4A3-VH2VL1, 71F4A3-VH1VL1 (Hz71F4), 71F4A3-VH1VL2, 71F4A3-VH3VL1, 411A11E9-VH1VL4, 411A11E9-VH3VL4, 411A11E9-VH2VL4, 411A11E9-VH3VL2, 411A11E9-VH1VL2, 21H12D9-VH1VL1, 21H12D9-VH2VL2, 21H12D9-VH3VL3, 21H12D9-VH1VL2, 64C10G1-VH1VL3, 64C10G1-VH1VL4, 64C10G1-VH1VL1, 64C10G1-VH1VL2 were selected to test affinity by Biacore 8K. 10 mM HEPES, 150 mM NaCl, 3 mM EDTA, 0.05% Tween-20, pH 7.4 served as running buffer and 10 mM glycine-HCl, pH2.0 served as regeneration buffer. CXCL13 protein were immobilized on Sensor Chip CM5 using amine coupling method (immobilization level ˜250RU). The serial concentrations of Fab (0-20 nM) were injected over immobilized CXCL13 at the flow rate of 30 μl/min. The dissociation phases were 600s.

[4] = target: T1, human CXCL13; assay: ELISA binding, Fab
[5] = target: T1, human CXCL13; assay: SPR Biacore, off-rate ranking of Fabs
[6] = target: T1, human CXCL13; assay: SPR Biacore T200
Description: In the first approach, mutations were chosen to target the hotspots in LCDR1, HCDR2 and HCDR3. Usually, CDR3 contributes most to antigen binding and heavy chain is more important than light chain for antigen binding. Moreover, LCDR1 is important for antigen binding. For the first trial, random mutations were targeted to hotspots in LCDR1, HCDR2 and HCDR3. Eliminate hotspots that code for conserved and buried amino acids in CDRs. […] After finishing construction of phage library, antigen CXCL13 screening was followed. Antibodies of these sequences were generated, and affinity testing was performed by Biacore T200.

| Binder | Kd [1] [pM] | koff [1] [s⁻¹] | kon [1] [M⁻¹ s⁻¹] | IC50 [2] [pM] | Kd [3] [pM] | koff [3] [s⁻¹] | kon [3] [M⁻¹ s⁻¹] | EC50 [4] [pM] | Kd [5] [pM] | koff [5] [s⁻¹] | kon [5] [M⁻¹ s⁻¹] | kon [6] [M⁻¹ s⁻¹] |
| --- | --- | --- | --- | --- | --- | --- | --- | --- | --- | --- | --- | --- |
| 71F4A3 chimeric Fab (Fab, V domains shown, Fab) VH: EVKLLQSGGGLVQPGGSLKLSCAASGIDFSRYWMSWVRRAPGKGLEWIGEINPDSSTINYAPSLKDKFIISRDNAKNTLYLQMSKVRSEDTALYYCARQDDYEYYAMDYWGQGTSVTVSS VL: DIVMTQSHKSMSTSVGDRVSITCKASQDVNTGVAWYRQKPGQSPKLLIYSASYRYTGVPDRFTGSGSGTDFTFTISSVQAEDLAVYYCQQYYSTPLTFGAGTKLELK | 154 | 0.000285 | 1.85e+06 | 5070 | 782 | 0.00141 | 1.8e+06 | 1490 | 556 | 0.00184 | 3.3e+06 | – |
| 71F4-4B12 (antibody, V domains shown, not certain; also called 71F4A3-B12) VH: EVQLVESGGGLVQPGGSLRLSCAASGIDFSRYWMSWVRQAPGKGLEWVAEINPERNYINYAPSLKDRFTISRDNAKNSLYLQMNSLRAEDTAVYYCARQDDYDKYAMDYWGQGTTVTVSS VL: DIQMTQSPSSLSASVGDRVTITCKASQDVNTGVTWYQQKPGKAPKLLIYSASYRYTGVPSRFSGSGSGTDFTFTISSLQPEDIATYYCQQYYSTPLTFGGGTKLEIK | – | – | – | – | – | – | – | – | – | – | – | 5.36e+06 |
| 71F4A3-3F12 (antibody, V domains shown, also called 71F4-3F12) VH: EVQLVESGGGLVQPGGSLRLSCAASGIDFSRYWMSWVRQAPGKGLEWVAEINPESNFINYAPSLKDRFTISRDNAKNSLYLQMNSLRAEDTAVYYCARQDDYSVYAMDYWGQGTTVTVSS VL: DIQMTQSPSSLSASVGDRVTITCKASQDVNTGVTWFQQKPGKAPKLLIYSASYRYTGVPSRFSGSGSGTDFTFTISSLQPEDIATYYCQQYYSTPLTFGGGTKLEIK | – | – | – | – | – | – | – | – | – | – | – | 6.3e+06 |
| 71F4A3-BC1 (antibody, V domains shown, also called 71F4-BC1) VH: EVQLVESGGGLVQPGGSLRLSCAASGIDFSRYWMSWVRQAPGKGLEWVAEINPEASSINYAPSLKDRFTISRDNAKNSLYLQMNSLRAEDTAVYYCARQDDYSHYAMDYWGQGTTVTVSS VL: DIQMTQSPSSLSASVGDRVTITCKASQDVNTGVSWSQQKPGKAPKLLIYSASYRYTGVPSRFSGSGSGTDFTFTISSLQPEDIATYYCQQYYSTPLTFGGGTKLEIK | – | – | – | – | – | – | – | – | – | – | – | 2.09e+06 |
| 71F4A3-5A4 (antibody, V domains shown, also called 71F4-5A4) VH: EVQLVESGGGLVQPGGSLRLSCAASGIDFSRYWMSWVRQAPGKGLEWVAEINPESTGINYAPSLKDRFTISRDNAKNSLYLQMNSLRAEDTAVYYCARQDDYWTYAMDYWGQGTTVTVSS VL: DIQMTQSPSSLSASVGDRVTITCKASQDVNTAVSWTQQKPGKAPKLLIYSASYRYTGVPSRFSGSGSGTDFTFTISSLQPEDIATYYCQQYYSTPLTFGGGTKLEIK | – | – | – | – | – | – | – | – | – | – | – | 6.58e+06 |
| 71F4A3-4H1 (antibody, V domains shown, also called 71F4-4H1) VH: EVQLVESGGGLVQPGGSLRLSCAASGIDFSRYWMSWVRQAPGKGLEWVAEINPESTLINYAPSLKDRFTISRDNAKNSLYLQMNSLRAEDTAVYYCARQDDYRNYAMDYWGQGTTVTVSS VL: DIQMTQSPSSLSASVGDRVTITCKASQDVNTGVSWFQQKPGKAPKLLIYSASYRYTGVPSRFSGSGSGTDFTFTISSLQPEDIATYYCQQYYSTPLTFGGGTKLEIK | – | – | – | – | – | – | – | – | – | – | – | 1.64e+07 |
| 64C10G1-VH1VL4 (Fab, V domains shown, Humanized Fab, human gamma 1 and kappa constant domains; also called 64C10G1-VH1VL4(Fab)) VH: EVQLVESGGGLVQPGGSLRLSCAASGFTFSSYAMSWVRQAPGKGLEWVATISDGGSDAYYPDNVKGRFTISRDNAKNSLYLQMNSLRAEDTAVYYCARDYYGSGYEDSPMDYWGQGTLVTVSS VL: DIQMTQSPSSLSASVGDRVTITCKASQDINKYIAWYQQKPGKAPKLLIHYTSTLQPGIPSRFSGSGSGTDYTFTISSLQPEDFATYYCLQYDNLYTFGGGTKLEIK | – | – | – | 6880 | 3680 | 0.00713 | 1.94e+06 | 784 | 3680 | 0.00713 | 1.94e+06 | – |

Now from value to binder:

| Kd [1] [pM] | koff [1] [s⁻¹] | kon [1] [M⁻¹ s⁻¹] | IC50 [2] [pM] | Kd [3] [pM] | koff [3] [s⁻¹] | kon [3] [M⁻¹ s⁻¹] | EC50 [4] [pM] | Kd [5] [pM] | koff [5] [s⁻¹] | kon [5] [M⁻¹ s⁻¹] | kon [6] [M⁻¹ s⁻¹] | Binder |
| --- | --- | --- | --- | --- | --- | --- | --- | --- | --- | --- | --- | --- |
| – | – | – | 11200 | 619 | 0.00125 | 2.02e+06 | 974 | 426 | 0.00136 | 3.2e+06 | – | 71F4A3-VH1VL1 (Hz71F4) Fab (Fab, V domains shown, Humanized Fab, human gamma 1 and kappa constant domains) VH: EVQLVESGGGLVQPGGSLRLSCAASGIDFSRYWMSWVRQAPGKGLEWVAEINPDSSTINYAPSLKDRFTISRDNAKNSLYLQMNSLRAEDTAVYYCARQDDYEYYAMDYWGQGTTVTVSS VL: DIQMTQSPSSLSASVGDRVTITCKASQDVNTGVAWYQQKPGKAPKLLIYSASYRYTGVPSRFSGSGSGTDFTFTISSLQPEDIATYYCQQYYSTPLTFGGGTKLEIK |
| – | – | – | – | – | – | – | – | – | – | – | 1.9e+06 | 71F4A3-BD12 (antibody, V domains shown, also called 71F4-BD12) VH: EVQLVESGGGLVQPGGSLRLSCAASGIDFSRYWMSWVRQAPGKGLEWVAEINPETTIINYAPSLKDRFTISRDNAKNSLYLQMNSLRAEDTAVYYCARQDDYRHYAMDYWGQGTTVTVSS VL: DIQMTQSPSSLSASVGDRVTITCKASQDVNTGVAWFQQKPGKAPKLLIYSASYRYTGVPSRFSGSGSGTDFTFTISSLQPEDIATYYCQQYYSTPLTFGGGTKLEIK |
| – | – | – | 10500 | 853 | 0.00145 | 1.7e+06 | 819 | 554 | 0.00108 | 1.95e+06 | – | 71F4A3-VH2VL1 (Fab, V domains shown, Humanized Fab, human gamma 1 and kappa constant domains) VH: EVQLVQSGGGLVQPGGSLRLSCAASGIDFSRYWMSWVRQAPGKGLEWVAEINPDSSTINYAPSLKDRFTISRDNAKNSLYLQMNSLRAEDTAVYYCARQDDYEYYAMDYWGQGTTVTVSS VL: DIQMTQSPSSLSASVGDRVTITCKASQDVNTGVAWYQQKPGKAPKLLIYSASYRYTGVPSRFSGSGSGTDFTFTISSLQPEDIATYYCQQYYSTPLTFGGGTKLEIK |
| – | – | – | 10700 | 628 | 0.00116 | 1.84e+06 | 1180 | 516 | 0.00147 | 2.85e+06 | – | 71F4A3-VH1VL2 (Fab, V domains shown, Humanized Fab, human gamma 1 and kappa constant domains) VH: EVQLVESGGGLVQPGGSLRLSCAASGIDFSRYWMSWVRQAPGKGLEWVAEINPDSSTINYAPSLKDRFTISRDNAKNSLYLQMNSLRAEDTAVYYCARQDDYEYYAMDYWGQGTTVTVSS VL: DIQMTQSPSSLSASVGDRVTITCKASQDVNTGVAWYQQKPGKAPKLLIYSASYRYTGVPSRFSGSGSGTDFTFTISSVQPEDIATYYCQQYYSTPLTFGGGTKLEIK |
| – | – | – | – | – | – | – | – | – | – | – | 362000 | 71F4A3-BC4 (antibody, V domains shown, also called 71F4-BC4) VH: EVQLVESGGGLVQPGGSLRLSCAASGIDFSRYWMSWVRQAPGKGLEWVAEINPEAGKWNYAPSLKDRFTISRDNAKNSLYLQMNSLRAEDTAVYYCARQDDYTTYAMDYWGQGTTVTVSS VL: DIQMTQSPSSLSASVGDRVTITCKASQDVNTGVSWYQQKPGKAPKLLIYSASYRYTGVPSRFSGSGSGTDFTFTISSLQPEDIATYYCQQYYSTPLTFGGGTKLEIK |
| – | – | – | 11300 | 934 | 0.00153 | 1.64e+06 | 574 | 462 | 0.000987 | 2.14e+06 | – | 71F4A3-VH3VL1 (Fab, V domains shown, Humanized Fab, human gamma 1 and kappa constant domains) VH: EVQLVQSGGGLVQPGGSLRLSCAASGIDFSRYWMSWVRQAPGKGLEWVGEINPDSSTINYAPSLKDRFTISRDNAKNSLYLQMNSVRAEDTAVYYCARQDDYEYYAMDYWGQGTTVTVSS VL: DIQMTQSPSSLSASVGDRVTITCKASQDVNTGVAWYQQKPGKAPKLLIYSASYRYTGVPSRFSGSGSGTDFTFTISSLQPEDIATYYCQQYYSTPLTFGGGTKLEIK |
| – | – | – | – | – | – | – | – | – | – | – | 1.03e+06 | 71F4A3-BE3 (antibody, V domains shown, also called 71F4-BE3) VH: EVQLVESGGGLVQPGGSLRLSCAASGIDFSRYWMSWVRQAPGKGLEWVAEINPESSTINYAPSLKDRFTISRDNAKNSLYLQMNSLRAEDTAVYYCARQDDYLTYAMDYWGQGTTVTVSS VL: DIQMTQSPSSLSASVGDRVTITCKASQDVNTAVDWFQQKPGKAPKLLIYSASYRYTGVPSRFSGSGSGTDFTFTISSLQPEDIATYYCQQYYSTPLTFGGGTKLEIK |
